Source: US20220242853A1, “MODIFIED CYANINE DYES AND CONJUGATES THEREOF” (BRACCO IMAGING S.P.A., priority 2019, published 2022)

Experiments:
[1] = Biodistribution and elimination by optical imaging after intravenous administration; assay type: in vivo, Balb/c nu/nu mice; conditions: male, Balb/c nu/nu, mouse, in vivo, iv
Method: Biodistribution and elimination of the fluorescent agents of the invention was evaluated by optical imaging after intravenous administration in male Balb/c nu/nu mice, 6-10 weeks of age (Charles River Laboratories). Briefly, mice housed 4 per cage and fed with VRF1 (P) sterile diet (Special Diets Services Ltd) up to the end of the acclimation period (5 days). Then, AIN-76a rodent diet irradiated (Research Diets), a special diet that reduces auto-fluorescence, was used up to the end of the experiments. Imaging experiments were performed using the preclinical optical system IVIS Spectrum (Perkin Elmer).
In vivo imaging was performed under gas anesthesia (Sevofluorane 6-8% in oxygen). Animals were intravenously injected with the compounds and imaged longitudinally at 30 min, 1 h, 2 h, 3 h, 4 h, 6 h, and 24 h post-administration. Thus, animals were euthanized by anesthesia overdose, and the main tissues and organs of interest were excised for ex vivo optical imaging. Regions of interest (ROIs) were drawn on the tissues of interest for each fluorescence image at every time point to evaluate signal intensity (expressed as Average adiant Efficiency). The ratio between the fluorescence signal in the muscle (background tissue) and excretory organs (kidney, liver) was then calculated to assess the contrast. The tissue half-life was calculated by fitting the fluorescence signal decay in the muscle with a bi-exponential decay equation model using GraphPad Prism Software (version 5 for Windows).

[2] = target: T1, human recombinant integrin αvβ3 (Homo sapiens, UniProt P05106+P06756); assay: Integrin receptor affinity ELISA (vitronectin-coated plates); assay type: binding; conditions: tested in duplicate; read-out: Receptor affinity (IC50)
T1 construct: purchased R&D Systems

[3] = tested on: Detroit-562 cells; assay: Tumor uptake by ex vivo optical imaging, orthotopic human head and neck cancer model; assay type: in vivo, Balb/c nu/nu mice; conditions: ex vivo tongue, 24 hours after iv 3 nmol/mouse
Method: Parallel experiments were performed in an animal model of human head and neck cancer (orthotopic), using Detroit-562 cells, overexpressing in particular integrin receptor αvβ6. Briefly, the human pharyngeal carcinoma cells Detroit-562 (ATCC, CCL-138) were cultured in Eagle's Minimum Essential Medium (EMEM) supplemented with 10% Fetal Bovine Serum (FBS), 2 mM glutamine, 100 IU/mL penicillin, 100 μg/mL streptomycin. Male Balb/c nu/nu mice, 4-6 weeks of age (Charles River Laboratories), underwent orthotopic implantation in the anterior portion of the tongue of about 2.5 million cells suspended in 0.03 mL di EMEM. Mice were housed 4 per cage with food and water ad libitum. Animals were fed with VRF1 (P) sterile diet (Special Diets Services Ltd) up to the end of the acclimation period (5 days). Then, AIN-76a rodent diet irradiated (Research Diets), a special diet that reduces auto-fluorescence, was used up to the end of the experiments. Tumor growth was monitored by longitudinal assessments using a caliper up to the target size of 10-20 mm^3 (7-10 days after cell implantation).
Imaging experiments were performed using the preclinical optical system IVIS Spectrum (Perkin Elmer). Animals were intravenously injected (lateral tail vein) with 3 nmol/mouse, at 24 hours post-administration were euthanized by anesthesia overdose, and the tongues were excised for ex vivo optical imaging. […]

[4] = tested on: U87MG cells; assay: Tumor uptake by optical imaging, subcutaneous human glioblastoma model; assay type: in vivo, Balb/c nu/nu mice; conditions: iv 1 nmol, 1-2 hours after administration, tumor vs muscle
Method: Tumor uptake experiments were carried out in an animal model of human glioblastoma (subcutanous) overexpressing the integrin receptors, particularly αvβ3. Briefly, human glioblastoma U87MG cells (ATCC, HTB-14) were cultured in Eagle's Minimum Essential Medium (EMEM) supplemented with 10% Fetal Bovine Serum (FBS), 2 mM glutamine, 100 IU/mL penicillin, 100 μg/mL streptomycin. Male Balb/c nu/nu mice, 4-6 weeks of age (Charles River Laboratories), underwent subcutaneous implantation (right flank) of about 10 million cells suspended in 0.1 mL of EMEM. Mice were housed 4 per cage with food and water ad libitum. […] Then, AIN-76a rodent diet irradiated (Research Diets), a special diet that reduces auto-fluorescence, was used up to the end of the experiments. Tumor growth was monitored by longitudinal assessments using a caliper up to the target size of 300-600 mm^3 (3-4 weeks after cell implantation). […]
In vivo imaging was performed under gas anesthesia (Sevofluorane 6-8% in oxygen). […] Regions of interest (ROIs) were drawn on the tissues of interest for each fluorescence image at every time point to evaluate signal intensity (expressed as Average Radiant Efficiency). The ratio between the fluorescence signal in the tumor and in the muscle (background tissue) was then calculated to assess the contrast.

[5] = Optical properties: excitation/emission maxima and absolute fluorescence quantum yield; assay type: physicochemical
Method: Analysis were performed with a Waters Atlantis dC18 5 μm, 4.6×150 mm column using a gradient of phase A CH3COONH4 10 mM and phase B acetonitrile. Measured mass/charge ratios are listed for each compound. A dual-beam UV-VIS spectrophotometer (Lambda 40, Perkin Elmer) was used to determine the absorbance (Abs) of the compounds of the invention. […] The measurements were performed using an excitation wavelength at maximum absorbance of different dyes, and the sample was excited with a […] Xenon Light Source. Detection was performed by photomultiplier tubes (PMT-NIR) cooled detector or by TBX-04 detector. Dye solutions were carefully prepared to have an absorbance lower than 0.1 (optical densities) to minimize re-absorption phenomena. The compounds of the invention have been characterized in terms of their optical properties in vitro in aqueous medium (i.e., water/PBS pH 7.4) and in a clinical chemistry control serum (Seronorm, Sero SA), mimicking the chemical composition and optical properties of human serum. All dye or dye-conjugate solutions were freshly prepared.

Q: With `CC(CC[N+]1=C(/C=C/C=C/C=C/C=C2/N(CCCCCC(=O)NCCCC[C@@H]3NC(=O)C(Cc4ccccc4)NC(=O)[C@H](CC(=O)O)NC(=O)CNC(=O)[C@H](CCCNC(=N)N)NC3=O)c3ccc(C(=O)NCC(O)C(O)C(O)C(O)CO)cc3C2(C)C)C(C)(C)c2cc(C(=O)NCC(O)C(O)C(O)C(O)CO)ccc21)S(=O)(=O)[O-]` (some centres unmarked) [Compound 1] as the molecule, how does the half-life [1] read?
A: Its half-life is under 1 h.

Q: What about the IC50 [2] of the same molecule?
A: The IC50 was 2.96 ± 0.49 nM.

Q: And the Tumor-to-background contrast [3]?
A: Its Tumor-to-background contrast is “high tumor-to-background contrast”.

Q: What about the “Tumor-to-background ratio (TBR)” value [4] of the same molecule?
A: Its value is 2-2.5.

Q: What about the “Max Em” value ([5]; PBS pH 7.4) of the same molecule?
A: Its value is 786 nm.

Q: What about the “Max Ex” value ([5]; PBS pH 7.4) of the same molecule?
A: Its value is 757 nm.

Q: What about the “Φ (absolute fluorescence quantum yield)” value ([5]; PBS pH 7.4) of the same molecule?
A: The value was 9.8%.

Q: And the “Φ (absolute fluorescence quantum yield)” value ([5]; Seronorm control serum)?
A: Its value is 13.0%.
